In patent US20260200999A1, “SYNTHETIC TRANSCRIPTION FACTORS” (ETH ZURICH, priority 2022, published 2026):
Entries after “also recorded” stand apart in the source; their conditions may differ.

Assays:
[1] = upon ingestion; cited from earlier work
[2] = target: T1, FKBP (SEQ ID NO: 142) and FRBT2098L (SEQ ID NO: 140) heterodimerization (Homo sapiens, UniProt P42345+P62942+Q04206, T2098L); experiment: A/C heterodimerizer-inducible HumTAP gene expression system in HEK293 cells; format: cell-based
T1 construct: expressed in transfected cells; host or cells: HEK293
Source text: One well-characterized small-molecule based dimerization system is based on the rapamycin analog A/C (C16-(S)-7-methylindolerapamycin) that induces heterodimerization between the human proteins FK506-binding protein 12 (FKBP; SEQ ID NO: 142) and the FKBP12-rapamycin binding domain (FRB) mutant FRBT2098L (SEQ ID NO: 140), [31]. To achieve A/C heterodimerizer-inducible gene expression, the inventors fused FKBP (SEQ ID NO: 142) to the N-terminus of MTERF158-399 (SEQ ID NO: 1) and FRB (SEQ ID NO: 140) to the C-terminus of different transactivation domains (FIG. 10A). […] In accordance with the results described above, chimeric transactivation domains mediated higher maximal output expression levels than RelA430-551.
The inventors reasoned that in the present system, dimerization might be hindered by either FRB's or FKBP's fusion partner and investigated whether the addition of linkers between the protein domains might impact the EC50 value (FIG. 10 D). A combination of the cMyc nuclear localization signal (NLS) (SEQ ID NO: 122) linking MTERF158-399 and FKBP, and the rigid linker AP6 (SEQ ID NO: 120) linking FRB and RelA430-551 led to a reduction in EC50 to ~60 nM while also increasing maximal output ~3-fold over the variant without linkers and RelA430-551 as TAD (FIG. 10 D).

[3] = target: FRB and FKBP dimerization (Homo sapiens, UniProt P42345+P62942, T2098L); conditions: previously reported A/C-inducible FRB and FKBP systems [31], [33]; cited from earlier work
[4] = target: T2, MTF (MTERF1 58-399::RelA 430-551) (Homo sapiens, UniProt Q99551 SEQ:2-343); experiment: cell_activity; mCitrine, HEK293; none without MTF; conditions: tags: RelA 430-551 TAD fusion
T2 chain: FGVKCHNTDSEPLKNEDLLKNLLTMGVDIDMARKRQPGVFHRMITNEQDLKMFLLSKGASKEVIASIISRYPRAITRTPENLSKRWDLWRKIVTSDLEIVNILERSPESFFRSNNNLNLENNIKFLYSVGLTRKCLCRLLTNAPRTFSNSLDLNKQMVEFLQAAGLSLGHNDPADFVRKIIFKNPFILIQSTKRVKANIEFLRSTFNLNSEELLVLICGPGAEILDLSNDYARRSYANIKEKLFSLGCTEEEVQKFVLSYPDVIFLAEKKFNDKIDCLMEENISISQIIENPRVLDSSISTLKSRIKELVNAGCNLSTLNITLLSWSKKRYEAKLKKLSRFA
Source text: The inventors next sought to facilitate potential future applications and created a collection of promoters with different strengths to match potential future applications' requirements. Randomly picking 20 variants yielded mostly weak promoters. To maximize diversity in size and strength, the inventors chose 19 further promoters based on their high activity score or small genetic size. Altogether, the inventors created a promoter collection spanning a wide range of sizes and strengths (FIG. 15A, B). After co-transfecting each variant either with or without a MTF plasmid amount corresponding to the EC90, and a mCherry transfection control plasmid into HEK293 cells, relative mCitrine levels were measured using flow cytometry. […]

[5] = test system: endogenous human genes in HEK293 cells; experiment: RNA-Seq differential gene expression analysis of transfected HEK293 cells versus junk plasmid (edgeR); format: cell-based; conditions: transfected HEK293 cells vs "junk" plasmid, FDR<0.5, fold-change of at least 2
Experimental: The inventors therefore used RNA-Seq to investigate whether MTF (SEQ ID NO: 100) activates the expression of endogenous human genes. The inventors also transfected WT MTERF1 (SEQ ID NO: 108) to compare the gene-regulatory effects of MTERF1 to those of MTF. Differential gene expression analysis was performed against cells that were transfected with a “junk” plasmid using the edgeR software package for R [24]. […] Future investigations will assess the dose-dependency of differentially expressed (DE) genes on MTF amount and may help clarify the origin of DE genes.

[6] = target: T3, MTERF1 58-399::FoxoTAD-LMSTEN-TA1 (Homo sapiens, UniProt Q99551 SEQ:1-342); experiment: cell_activity; HEK293 reporter; conditions: tags: TAD fusion
T3 chain: T2 chain
Source text: (§1) Upon co-transfection of HEK293 cells with plasmids encoding pEF1a-driven expression of the fusion HumTAPs, a Response Element-driven mCerulean reporter protein, and a mCherry transfection control, all peptides derived from RelA except TA1 mediated high levels of reporter gene expression. Including a larger fraction of the RelA protein led to higher reporter expression. Conversely, the core transactivation domains TA1, WW, ZNF473 KRAB, and NucRecCoAct mediated little to no reporter expression.
(§2) Similarly, two copies of FoxoTAD (SEQ ID NO: 33) mediated 20-fold more mCerulean expression than just one FoxoTAD copy and ~2-fold more than the benchmark RelA₄₃₀₋₅₅₁ TAD. This effect was not as pronounced for the LMSTEN domain for which two copies (SEQ ID NO: 196) mediated ~2.7-fold more reporter expression than one copy. Fusing FoxoTAD with LMSTEN (SEQ ID NO: 54), LMSTEN with TA1 (SEQ ID NO: 56), or FoxoTAD with TA1 (SEQ ID NO: 58) yields TADs that are at the same time smaller and stronger than the benchmark RelA₄₃₀₋₅₅₁ TAD. A chimeric TAD consisting of FoxoTAD, LMSTEN, and TA1 (SEQ ID NO: 52) yields 3.7 times the amount of reporter gene expression than RelA₄₃₀₋₅₅₁ (FIG. 9 C). It is therefore possible to engineer both stronger and smaller transactivation domains than the commonly used RelA₄₃₀₋₅₅₁ without incorporating protein domains of non-human origin. […]

[7] = target: T4, MTERF1 58-399::2xFoxoTAD (Homo sapiens, UniProt Q99551 SEQ:1-342); experiment: cell_activity; HEK293 reporter; conditions: tags: TAD fusion
T4 chain: T2 chain
Source text: as §1, §2

[8] = target: T5, MTERF1 58-399::2xTA1 (Homo sapiens, UniProt Q99551 SEQ:1-342); experiment: cell_activity; HEK293 reporter; conditions: tags: TAD fusion
T5 chain: T2 chain

[9] = target: T6, MTERF1 58-399::LMSTEN (Homo sapiens, UniProt Q99551 SEQ:1-342); experiment: cell_activity; HEK293 reporter; TAD effect; conditions: tags: TAD fusion
T6 chain: T2 chain

[10] = target: T7, MTERF1 58-399::FoxoTAD (Homo sapiens, UniProt Q99551 SEQ:1-342); experiment: cell_activity; HEK293 reporter; TAD effect; conditions: tags: TAD fusion
T7 chain: T2 chain

[11] = test system: Response Element-driven (SEQ ID NO: 48) mCerulean fluorescent reporter; experiment: Orthogonality: MTF-driven reporter with or without WT MTERF1 co-expression; format: cell-based, human; conditions: HEK293; MTF construct plus reporter SEQ ID NO: 48, with or without EF1a-driven WT MTERF1
Source text: To assess the orthogonality of the host towards the Response Element-driven Gene of Interest (Gol), the inventors transfected a HumTAP representative MTF (SEQ ID NO: 100) with a Response Element-driven (SEQ ID NO: 48) mCerulean fluorescent reporter, with and without the construct encoding a wild-type MTERF1 to assess whether it might interfere with the induction of the Gol by MTF (FIG. 7B).

T1 sequence (P62942 with tags, fused parts or gaps, stated change not applied): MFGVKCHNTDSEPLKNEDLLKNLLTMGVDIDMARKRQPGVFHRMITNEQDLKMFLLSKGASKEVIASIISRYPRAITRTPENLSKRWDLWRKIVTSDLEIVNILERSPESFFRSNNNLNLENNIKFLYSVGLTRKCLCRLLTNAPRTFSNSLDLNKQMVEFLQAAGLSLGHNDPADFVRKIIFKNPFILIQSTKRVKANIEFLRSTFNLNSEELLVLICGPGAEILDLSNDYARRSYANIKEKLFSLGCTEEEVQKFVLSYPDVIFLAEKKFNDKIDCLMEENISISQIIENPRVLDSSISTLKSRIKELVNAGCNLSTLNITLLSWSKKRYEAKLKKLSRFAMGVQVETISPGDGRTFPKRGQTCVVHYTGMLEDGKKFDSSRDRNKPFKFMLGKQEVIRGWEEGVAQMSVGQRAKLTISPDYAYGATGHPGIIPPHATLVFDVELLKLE
T1 sequence (P42345+Q04206 fused P42345:T2098L): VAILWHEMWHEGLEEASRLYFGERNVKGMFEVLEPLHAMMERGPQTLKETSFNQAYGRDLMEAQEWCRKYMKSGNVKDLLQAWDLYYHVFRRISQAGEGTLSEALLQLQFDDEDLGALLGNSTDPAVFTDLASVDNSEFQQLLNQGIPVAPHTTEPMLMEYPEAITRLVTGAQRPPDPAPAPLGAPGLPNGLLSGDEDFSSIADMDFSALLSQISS
Chain of FRB and FKBP dimerization (P62942 whole entry, the tested form may be a part): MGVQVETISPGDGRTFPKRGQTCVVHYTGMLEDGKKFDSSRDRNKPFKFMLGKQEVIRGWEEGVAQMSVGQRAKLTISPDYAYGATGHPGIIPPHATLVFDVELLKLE
Chain of FRB and FKBP dimerization (P42345 2012-2144 T2098L): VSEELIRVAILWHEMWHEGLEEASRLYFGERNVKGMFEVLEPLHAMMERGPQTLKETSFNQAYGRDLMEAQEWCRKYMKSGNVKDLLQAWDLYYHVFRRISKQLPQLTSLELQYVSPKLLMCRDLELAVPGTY

Q: With `CO[C@H]1C[C@@H]2CC[C@@H](C)[C@@](O)(O2)C(=O)C(=O)N2CCCC[C@H]2C(=O)O[C@H]([C@H](C)C[C@@H]2CC[C@@H](O)[C@H](OC)C2)CC(=O)[C@H](C)/C=C(\C)[C@@H](O)[C@@H](OC)C(=O)[C@H](C)C[C@H](C)/C=C/C=C/C=C/1C` [rapamycin] as the molecule, how does the physiological blood concentrations [1] read?
A: ~ 22 nM

Q: For “C16-(S)-7-methylindolerapamycin [A/C heterodimerizer]”, which “mCerulean levels versus inducer concentration” value ([2]; HEK cells co-transfected with MTERF158-399::FKBP and FRB fusions to the strongest TADs, FIG. 10C) is on record?
A: increased dose-dependently

Q: What about the EC50 ([2]; cMyc NLS linking MTERF158-399 and FKBP, AP6 linker linking FRB and RelA430-551, FIG. 10D) of the same molecule?
A: ~60 nM

Q: And the EC50 [3]?
A: ~1 nM

B1: sense-5-8-10 promoter (dsDNA)
DNA 1: TAAGATGGCAGAGCCCGGTAATAGAGTGCGTAAGATGGCAGAGCCCGGTAATAGAGTGCGTAAGATGGCAGAGCCCGGTAATAGAGTGCGTAAGATGGCAGAGCCCGGTAATAGAGTGCGTAAGATGGCAGAGCCCGGTAATGACTCATATGCTCTAGAGGGTATATAATGGGGGCC
DNA 2: GGCCCCCATTATATACCCTCTAGAGCATATGAGTCATTACCGGGCTCTGCCATCTTACGCACTCTATTACCGGGCTCTGCCATCTTACGCACTCTATTACCGGGCTCTGCCATCTTACGCACTCTATTACCGGGCTCTGCCATCTTACGCACTCTATTACCGGGCTCTGCCATCTTA
Q: With B1 as the molecule, how does the binding signal [4] read?
A: 2 fold vs sense-5-9-8

B2: WT MTERF1: human MTERF1, Uniprot Q99551, including the mitochondrial transfer peptide (protein, listed as Homo sapiens)
chain: MQSLSLGQTSISKGLNYLTIMAPGNLWHMRNNFLFGSRCWMTRFSAENIFKSVSFRLFGVKCHNTDSEPLKNEDLLKNLLTMGVDIDMARKRQPGVFHRMITNEQDLKMFLLSKGASKEVIASIISRYPRAITRTPENLSKRWDLWRKIVTSDLEIVNILERSPESFFRSNNNLNLENNIKFLYSVGLTRKCLCRLLTNAPRTFSNSLDLNKQMVEFLQAAGLSLGHNDPADFVRKIIFKNPFILIQSTKRVKANIEFLRSTFNLNSEELLVLICGPGAEILDLSNDYARRSYANIKEKLFSLGCTEEEVQKFVLSYPDVIFLAEKKFNDKIDCLMEENISISQIIENPRVLDSSISTLKSRIKELVNAGCNLSTLNITLLSWSKKRYEAKLKKLSRFA
Q: With B2 as the molecule, how does the “DE genes, Regulation Up (up-regulated gene, Symbol)” value [5] read?
A: GDF15; also recorded: TRPV6; also recorded: HSPA7

B3: 5xRE, 0 bp spacing (dsDNA)
DNA 1: TAAGATGGCAGAGCCCGGTAATTAAGATGGCAGAGCCCGGTAATTAAGATGGCAGAGCCCGGTAATTAAGATGGCAGAGCCCGGTAATTAAGATGGCAGAGCCCGGTAAT
DNA 2: ATTACCGGGCTCTGCCATCTTAATTACCGGGCTCTGCCATCTTAATTACCGGGCTCTGCCATCTTAATTACCGGGCTCTGCCATCTTAATTACCGGGCTCTGCCATCTTA
Q: Which results are given for B3?
A: binding signal [6]: 3.7 fold vs MTF; binding signal [7]: ~2 fold vs MTF; binding signal [8]: 201 fold vs one TA1 copy; binding signal [9]: 11.3 fold lower than MTF; binding signal [10]: 8.4 fold lower than MTF

B4: MTF: fusion of human MTERF1 amino acids 58-399 to RELA amino acids 430-551; prototype HumTAP synthetic transcription factor (protein)
chain: MFGVKCHNTDSEPLKNEDLLKNLLTMGVDIDMARKRQPGVFHRMITNEQDLKMFLLSKGASKEVIASIISRYPRAITRTPENLSKRWDLWRKIVTSDLEIVNILERSPESFFRSNNNLNLENNIKFLYSVGLTRKCLCRLLTNAPRTFSNSLDLNKQMVEFLQAAGLSLGHNDPADFVRKIIFKNPFILIQSTKRVKANIEFLRSTFNLNSEELLVLICGPGAEILDLSNDYARRSYANIKEKLFSLGCTEEEVQKFVLSYPDVIFLAEKKFNDKIDCLMEENISISQIIENPRVLDSSISTLKSRIKELVNAGCNLSTLNITLLSWSKKRYEAKLKKLSRFAQAGEGTLSEALLQLQFDDEDLGALLGNSTDPAVFTDLASVDNSEFQQLLNQGIPVAPHTTEPMLMEYPEAITRLVTGAQRPPDPAPAPLGAPGLPNGLLSGDEDFSSIADMDFSALLSQISS
Q: With B4 as the molecule, how does the “Gol fluorescence levels with or without concomitant WT MTERF1 expression” value [11] read?
A: no difference in Gol fluorescence levels

Q: What about the “DE genes, Regulation Up (up-regulated gene, Symbol)” value [5] of the same molecule?
A: Novel Transcript; also recorded: USP17L2; also recorded: HSPA7; also recorded: ADGRA1
